Assay [1] has as its target T1, CXCR1 (UniProt P25024 1-350, limits assumed).
T1 construct: whole, on cells; DiscoveRx PathHunter cell line; any reporter tag on the receptor is not described; also called CXCR1 receptor; CXCR1-U2OS
T1 sequence (looked up): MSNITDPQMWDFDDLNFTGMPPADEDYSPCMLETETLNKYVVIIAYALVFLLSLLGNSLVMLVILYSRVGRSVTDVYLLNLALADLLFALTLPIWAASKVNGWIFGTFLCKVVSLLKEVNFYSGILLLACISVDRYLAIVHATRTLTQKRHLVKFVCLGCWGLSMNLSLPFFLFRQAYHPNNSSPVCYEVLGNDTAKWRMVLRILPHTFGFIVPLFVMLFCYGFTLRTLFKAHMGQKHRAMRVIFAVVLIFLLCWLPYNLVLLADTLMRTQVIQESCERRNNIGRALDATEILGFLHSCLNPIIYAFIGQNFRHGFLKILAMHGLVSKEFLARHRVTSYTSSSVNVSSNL
Description: flow cytometry, supernatant at 5 nM IgG. A general note: A flow cytometer gives signals particle by particle.

Assay [2] has as its target T1, CXCR1. As to the kind of experiment: flow cytometry, supernatant at 5 nM IgG. The source holds these as a separate data set.

Positions count from the first letter of the chain named. Names may count otherwise. Read-outs that look alike come from different tables or passages of the source.

B1: VH4-34+CDR3-IL8_CDR1 Cow_CDR2 E50S / VL1-51 S2A, T5N, P8S, A12G, A13S, P14L, D51G, N52D, N53T IgG (antibody)
VH: QVQLQQWGAGLLKPSETLSLTCTASGFSLSDKAVGWIRQPPGKGLEWIGSINHSGSTNYNPSLKSRVTISVDTSKNQFSLKLSSVTAADTAVYYCTSVHQETKKYQSPRSAKELRCQCIKTYSKPFHPKFIKELRVIESGPHCANTEIIVKLSDGRELCLDPKENWVQRVVEKFLKRAENSGSGSYTYNYEWHVDVWGQGLLVTVSSAS
light: QAVLNQPSSVSGSLGQKVTISCSGSSSNIGNNYVSWYQQLPGTAPKLLIYGDTKRPSGIPDRFSGSKSGTSATLGITGLQTGDEADYYCASAEDSSSNAVFGSGTTLTVLGQPKAAPSVTLFPPSSEELQANKATLVCLISDFYPGAVTVAWKADSSPVKAGVETTTPSKQSNNKYAASSYLSLTPEQWKSHRSYSCQVTHEGSTVEKTVAPTECS
Take B1: the “Specific Binding (CXCR1-Cell median AFU / Parental Cell median AFU)” value in assay [1] was 6.

B2: VH4-34+CDR3-IL8_CDR1-G31DY32K_Q5RQ6E / VL1-51 S2A, T5N, P8S, A12G, A13S, P14L, D51G, N52D, N53T IgG (antibody)
VH: QVQLREWGAGLLKPSETLSLTCAVYGGSFSDKYWSWIRQPPGKGLEWIGEINHSGSTNYNPSLKSRVTISVDTSKNQFSLKLSSVTAADTAVYYCTSVHQETKKYQSPRSAKELRCQCIKTYSKPFHPKFIKELRVIESGPHCANTEIIVKLSDGRELCLDPKENWVQRVVEKFLKRAENSGSGSYTYNYEWHVDVWGQGLLVTVSS
light: B1 light
Turning to B2, the “Specific Binding (CXCR1-Cell median AFU / Parental Cell median AFU)” value in assay [2] worked out at 2.

B3: VH4-34+CDR3-IL8_Q5RQ6E / VL1-51 S2A, T5N, P8S, A12G, A13S, P14L, K46R, L47T, D51G, N52D, N53T IgG (antibody)
VH: B2 VH with D31G, K32Y
light: B1 light with K46R, L47T
notes: nt HC 490, LC 486
B3: the “Specific Binding (CXCR1-Cell median AFU / Parental Cell median AFU)” value in assay [2] amounted to 10.

B4: VH4-34+CDR3-IL8_CDR1-Cow_CDR2-Cow_Q5RQ6E / VL1-51 I29V, N32G, K46R, L47T, D51G, N52D, N53T IgG (antibody)
VH: QVQLREWGAGLLKPSETLSLTCTASGFSLSDKAVGWIRQPPGKGLEWLGSIDTGGNTGYNPSLKSRVTISVDTSKNQFSLKLSSVTAADTAVYYCTSVHQETKKYQSPRSAKELRCQCIKTYSKPFHPKFIKELRVIESGPHCANTEIIVKLSDGRELCLDPKENWVQRVVEKFLKRAENSGSGSYTYNYEWHVDVWGQGLLVTVSS
light: B1 light with A2S, N5T, S8P, G12A, S13A, L14P, I29V, N32G, K46R, L47T
With B4, in assay [2], the “Specific Binding (CXCR1-Cell median AFU / Parental Cell median AFU)” value amounted to 1.

B5: VH4-34+CDR3-IL8_CDR1-Cow_CDR2-E50S_Q5RQ6E / VL1-51 S2A, T5N, P8S, A12G, A13S, P14L, K46R, L47T, D51G, N52D, N53T, K54S, P56A IgG (antibody)
VH: B4 VH with L48I, D52N, T53H, G54S, N56S, G58N
light: B1 light with K46R, L47T, K54S, P56A
With B5, in assay [2], the “Specific Binding (CXCR1-Cell median AFU / Parental Cell median AFU)” value stood at 2.

B6: VH4-34+CDR3-IL8_CDR1-G31DY32K_CDR2-E50S_Q5RQ6E / VL1-51 I29V, N32G, K46R, L47T, D51G, N52D, N53T IgG (antibody)
VH: B2 VH with E50S
light: B1 light with A2S, N5T, S8P, G12A, S13A, L14P, I29V, N32G, K46R, L47T
On to B6, for which the “Specific Binding (CXCR1-Cell median AFU / Parental Cell median AFU)” value in assay [2] was 1.

B7: VH4-34+CDR3-IL8_CDR2-Cow_Q5RQ6E / VL1-51 S2A, T5N, P8S, A12G, A13S, P14L, K46R, L47T, D51G, N52D, N53T, K54S, P56A IgG (antibody)
VH: B2 VH with D31G, K32Y, I48L, E50S, N52D, H53T, S54G, S56N, N58G
light: B1 light with K46R, L47T, K54S, P56A
With B7, in assay [2], the “Specific Binding (CXCR1-Cell median AFU / Parental Cell median AFU)” value is 1.

B8: VH4-34+CDR3-IL8_CDR1 Cow_CDR2 E50S / VL1-51 S2A, T5N, P8S, A12G, A13S, P14L IgG (antibody)
VH: B1 VH
light: B1 light with G51D, D52N, T53N
Turning to B8, in assay [1], the “Specific Binding (CXCR1-Cell median AFU / Parental Cell median AFU)” value was 5.

B9: VH4-34+CDR3-IL8_CDR2-E50S_Q5RQ6E / VL1-51 S2A, T5N, P8S, A12G, A13S, P14L, K46R, L47T, D51G, N52D, N53T, K54S, P56A IgG (antibody)
VH: B2 VH with D31G, K32Y, E50S
light: B1 light with K46R, L47T, K54S, P56A
Take B9: in assay [2], the “Specific Binding (CXCR1-Cell median AFU / Parental Cell median AFU)” value came to 1.

B10: VH4-34+CDR3-IL8_CDR1-Cow_CDR2-Cow_Q5RQ6E / VL1-51 S2A, T5N, P8S, A12G, A13S, P14L, K46R, L47T, D51G, N52D, N53T, K54S, P56A IgG (antibody)
VH: B4 VH
light: B1 light with K46R, L47T, K54S, P56A
On to B10, for which, in assay [2], the “Specific Binding (CXCR1-Cell median AFU / Parental Cell median AFU)” value is 2.

B11: VH4-34+CDR3-IL8_CDR1-Cow_Q5RQ6E / VL1-51 I29V, N32G, K46R, L47T, D51G, N52D, N53T IgG (antibody)
VH: B4 VH with L48I, S50E, D52N, T53H, G54S, N56S, G58N
light: B1 light with A2S, N5T, S8P, G12A, S13A, L14P, I29V, N32G, K46R, L47T
Turning to B11, in assay [2], the “Specific Binding (CXCR1-Cell median AFU / Parental Cell median AFU)” value is 1.

B12: VH4-34+CDR3-IL8_CDR1 Cow_CDR2 Cow / VL1-51 S2A, T5N, P8S, A12G, A13S, P14L, D51G, N52D, N53T IgG (antibody)
VH: B1 VH with I48L, N52D, H53T, S54G, S56N, N58G
light: B1 light
On to B12, for which, in assay [1], the “Specific Binding (CXCR1-Cell median AFU / Parental Cell median AFU)” value is 10.

B13: VH4-34+CDR3-IL8_CDR1-Cow_CDR2-E50S_Q5RQ6E / VL1-51 S2A, T5N, P8S, A12G, A13S, P14L, D51G, N52D, N53T IgG (antibody)
VH: B4 VH with L48I, D52N, T53H, G54S, N56S, G58N
light: B1 light
Turning to B13, in assay [2], the “Specific Binding (CXCR1-Cell median AFU / Parental Cell median AFU)” value was 2.

B14: VH4-34+CDR3-IL8_CDR1-Cow_CDR2-E50S_Q5RQ6E / VL1-51 I29V, N32G, K46R, L47T, D51G, N52D, N53T IgG (antibody)
VH: B4 VH with L48I, D52N, T53H, G54S, N56S, G58N
light: B1 light with A2S, N5T, S8P, G12A, S13A, L14P, I29V, N32G, K46R, L47T
Regarding B14, in assay [2], the “Specific Binding (CXCR1-Cell median AFU / Parental Cell median AFU)” value is 1.

B15: VH4-34+CDR3-IL8_CDR1 Cow / VL1-51 S2A, T5N, P8S, A12G, A13S, P14L, K46R, L47T, D51G, N52D, N53T IgG (antibody)
VH: B1 VH with S50E
light: B1 light with K46R, L47T
For the molecule B15, in assay [1], the “Specific Binding (CXCR1-Cell median AFU / Parental Cell median AFU)” value stood at 10.

B16: VH4-34+CDR3-IL8_CDR1-Cow_CDR2-E50S_Q5RQ6E / VL1-51 I29V, N32G, K46R, L47T, D51G, N52D, N53T, K54S, P56A IgG (antibody)
VH: B4 VH with L48I, D52N, T53H, G54S, N56S, G58N
light: QSVLTQPPSVSAAPGQKVTISCSGSSSNVGNGYVSWYQQLPGTAPRTLIYGDTSRASGIPDRFSGSKSGTSATLGITGLQTGDEADYYCASAEDSSSNAVFGSGTTLTVLGQPKAAPSVTLFPPSSEELQANKATLVCLISDFYPGAVTVAWKADSSPVKAGVETTTPSKQSNNKYAASSYLSLTPEQWKSHRSYSCQVTHEGSTVEKTVAPTECS
In the case of B16, in assay [2], the “Specific Binding (CXCR1-Cell median AFU / Parental Cell median AFU)” value was 2.

The values are drawn from patent US20230287598A1 (TAURUS BIOSCIENCES, published 2023).
